The nature of this series: soluble on expression in E. coli; label from the status in PepcDB or PDB records.
Turning to “MLEEQLYLLACIFASRADTRNIKKLSTRLGSQSKYLEILCVLWPELDDPKNLLFLRELEEEVQSPEGEETTDEDVIVELLESDSSLIPLIESDTTTRSNRYHELQEFISKKLNNKTLENFEEWLRERILICNEMIPETPLLYSVLWETAKSKVLSTKFIGWVEGVLKPLDHLNKRLHLIFKINEWEKMPDSELFKIIFDGVEDMQGYIGIADVIEDELAPTLSYGKKWETFITEFFNKQQFSLKSDTNYQLFIKLYYSLEKGVKDNSEASRKLQSNVVDILFHNSENLFNLSSLTHKLDELWSILSGFPDEITIEEQKTITALEMKQFMEFFIKCSTKFSFKEIFAITQEEESAQLAHFSSLCHEEFNKANEISSFLQAMYETVLDISKDDKIFTRISMDEKLYSILEILLQMNEFAYIEAIIERFDYSNNTQIYELLVKFFWHFFNNASNGLRKEPEMKKASQTLQIIQKHMSQRAGTNLTKLEVLLEISDKLSHYSINLNKSHNGARDTAFKPSNILEYRDCPLDIISNLLELNPRLYKDLPTTKSLLFGIYDSLSINREGQTGKVEVDLMVLHIDYALVNLDFGTAYELGKQVFEICQEAGQHMMKALGDEHWLTFYQMGKFVDPNWVDNEIPTEIIVLQMSILGRLLEVCPLEEVEIVTSQWSTLELELSARDLVKDKYALDGQNDNKSKVGGIAREIFHNVTNF”, the “soluble on expression in E. coli” value is reported as “soluble”.

For the sequence “MFTAKLIKGKTYNVMGITFRAGVSQTVPKKLYEYLNENPYFILTQELNNQKDDPINYTESELKGMNKAEHESIISNLGRNPSDFKNADERIAYILKQIDNKGELEHHHHHH”, the “soluble on expression in E. coli” value is “soluble”.

Regarding “VLQLAEQIDVVIFDLNGTLTTGVPVVKEYAVLNDADLSSEHFLSICNVLEGQSKHPFGKAIQSFTQGINKQKFNIANLDHSNHSGISAEINGIQYTIGSKTLMQEIGISTSSLENQMNLVAGDSLVFLARNKQLLGYLVITDPLRKDAKQTVDALIKMGKEVHLCTGADEKTAYRYAQALGIKKVHANCVATTINTEDRSKPVYIKSLQNQGLKVAMIGDAANDANALAASDFGIAVLSQDSDEITQQHASAIIQSGTILPIANAFAISKQTVNNINQNLLISLGYNLTTV”, the “soluble on expression in E. coli” value is “not soluble”.

Take “MGSDKIHHHHHHMNSGIYSALTGNVAAMKRLDVLSNNLANVNTPGFKKDRMTFESMLQTVGAQPRPGGGTDAPVFAETTFFTDYSPGSVKQTGNPFDLAIDGDGFFAVTTADGQRAYTRQGNFRLDSTGRLVTADGAQVAGGVVIAGGKVDINGKGEVLVDGSQVGRLEVVDFPKPYALQKLGGGLFVPADPQATPNPVTGEKVMQGAIEESNVNTVQEMVQLIETNRYFEMCSKVVKAYDDLTGKAANEIGKI”: the “soluble on expression in E. coli” value is “not soluble”.

For the sequence “MARTEIWLRLMYVGDLYGEAMLNMANSLIRQPQINRTHLQEAGLTARQAERFLQLPAGVLDETLRWLELPQHHFLCADSEIYPPQLRAIDDYPGAIFIDGDPACLHTCQLAVVGSRSHSWYGERWGRLLCESLAKSGLTITSGLARGIDGVAHNAAVSMGGKSVAVLGNGLAKIYPRRHAMLAENLIATGGAVVSEFPLSTPPLPQHFPRRNRIISGLSKGVLVIEAALRSGSLVTARCALEQGRDVFALPGPIGSPGSEGTHWLIKQGATLVTTPEDILENLQYGLHWLPTTAENSLYSLNQDEAALPFPELLANVGDEVTPVDVVAERAGQPVPAVVAQLLELELAGWIAAVPGGYVRLRRASHVRRTNVFV”, the “soluble on expression in E. coli” value was “not soluble”.

With “MGSDKIHHHHHHMFHREDFSKALLKKALQPGMRVMDIGCGSGELTRLAADIVGKEGDVVGIDINEQLLWQARHDNGYANVSYQNADLAALSSFETKSFDAIIGRRVLMYQKDPKKVIESLTPLLKPNGFYVFQESDAMCLELAKPSFVNMNKIQSLIWQTVEKEGGHIHIGSQLEQLMLEAGLIVDHFVSENVIQTSQTGTDLSWLLNIMKERIQKYSDLQGLEDVNLQKELEENNDHFIRDCQFGIISHRVDE”, the “soluble on expression in E. coli” value is recorded as “not soluble”.

On to “MGSDKIHHHHHHMSKMLTLAVRAHDVGTKISPVELAKKIAETNITSIQFALGISYPEYASAAVLSPGLGSQLKNIFEDEKITISVLSCYINLIHPDLEEREKRLHQFETYIRYDSMFGAKIVATETGSIYETIYYTEDNYTEEAYEEVLFSVRRLCREAEKYGIIVGIEPGINHPIHTIEKMQRLIDEVASTNLGIILDPTNLIRVDIDKTYLEIVEEAFECFGEKIVAFHLKDFIIRNQQIFPVAIGEGQVPLTETIQFLNKHKPGLFTIFEETPFEKIASAYQKVSQYHSI”, for which the “soluble on expression in E. coli” value is “not soluble”.

Regarding “MGSDKIHHHHHHMQLLGPTSNTFISQRLRLHYVDWGNADKPPLLLVHGGRDHCRSWDWTAEALREDWHIIALDHRGHGDSQWTQDGNYRTMDLVYDVAQLIHQLDLAPVTIVSHSWGANTSLRYAGLFPENVRKIVAIEGLFPTPEREALMKDVPFARRVREFIVEKRKAAGRLPRRYATLEDAYARMKGENPYLTDAQARHLTLHGINRNEDGTFSWKFDPHLNVDGAPYDISTDQRNELWGAITCPTLLLNGADSWAGNPDRNGMAQHFRNAQVVEFENAGHWLHHDQFDRFIATLRDFL”, the “soluble on expression in E. coli” value was “not soluble”.

Consider “MTAMPRIAFLASPAEPAVAARARLVQRYGDHALHDADIVCALGGDGFMLQTLHRHGAADKPVFGMKLGSVGFLMNQYRDDEDDLLARLQRAEPAHLRPLEMLVQTESGTSAGSLAYNEVSLLRQTRQAAHLSVDLNGQTRIAELIGDGVMVATPAGSTAYNYSAHGPILPLGSHTLALTPIAPYRPRRWRGAILKADTEVRFRVLDPYKRPVSVTADSHEIRDVVEVTIRESTERRVTLLFDPEHNLEERIFSEQFAVLEHHHHHH”, for which the “soluble on expression in E. coli” value is listed as “not soluble”.

As for “MAHHHHHHMEGEEYDKILVLNFGSQYFHLIVKRLNNIKIFSETKDYGVELKDIKDMNIKGVILSGGPYSVTEAGSPHLKKEVFEYFLEKKIPIFGICYGMQEIAVQMNGEVKKSKTSEYGCTDVNILRNDNINNITYCRNFGDSSSAMDLYSNYKLMNETCCLFENIKSDITTVWMNHNDEVTKIPENFYLVSSSENCLICSIYNKEYNIYGVQYHPEVYESLDGELMFYNFAYNICKCKKQFDPIRYHELELKNIEKYKHDHYVIAAMSGGIDSTVAAAYTHKIFKERFFGIFIDNGLLRKNEAENVYTFLKSTFPDMNITKIDASENFLSNLQGVTDPEQKRKIIGKLFIEEFEKAVNNIDIDINKTFLLQGTLYPDIIESKCSKNLSDTIKTHHNVGGLPKNLKFKLFEPFKYLFKDDVKTLSRELNLPEEITNRHPFPGPGLAIRVIGEINKHKLNILREVDDIFINDLKQYGLYNQISQAFAVLLSSKSVGVRGDARSYDYVCVLRAVKTSSFMTANWYQIPYDILDKITTRILSEVKGVNRILYDVSSKPPATIEFE”, the “soluble on expression in E. coli” value is listed as “soluble”.

Take “MRWLLVVAGLLAAGGLAQTPPPPAAQTAEQNPLRLGVQLYALGRYDAALTLFERALKENPQDPEALYWLARTQLKLGLVNPALENGKTLVARTPRYLGGYMVLSEAYVALYRQAEDRERGKGYLEQALSVLKDAERVNPRYAPLHLQRGLVYALLGERDKAEASLKQALALEDTPEIRSALAELYLSMGRLDEALAQYAKALEQAPKDLDLRVRYASALLLKGKAEEAARVLEEGHRIKPLNAEGWYTLGQAYLALGRTKEAGVALENAVALAPLRFPAAYYYLGQVYLALGDYPKAKSRLTVAVRLEPKRAEYRYSLCLANEKLGDKEGARYQCQEALKLRPDYKEAEEVLKRL”: the “soluble on expression in E. coli” value is recorded as “soluble”.

As for “MGSDKIHHHHHHMNQEDDAKLAYLMAVNAIQMTKARYCRFVDTKQWDRLRTLFTADCRFEGLGSAPDRADLDIFIQGISRRLAHVVSVHHCHMGEIELVGADEAKVIWAMEDHLEWQDSGEVVEAPGNRGFRGYGHYEECYVRQGDTWKISLLRLTRLGIHPIPDAQPRLGTGRLGANPDWLPSDRRLR”, the “soluble on expression in E. coli” value is “not soluble”.

Take “MYTHLTDMTNMLDTAKIGTSDGTFPLANAQNLQKAVEELQTGISKGMAGYFVLQYEIDNYCIAAEKAIAEFQDSYQQTLQPGTPAELKVFGIDGKGRIEFGSDPAYGGGNTFTVESWVKYDAGFFESGIGSFLSTFDGKQPNEGWMINFLGSNLRTTIGMGPQEGRVLEEGRAYPDNFGKWNHVVTVWDNTLPEGQLKMYVNGELFFSKTNDVKNDAGVLQNYMPNTRNQNMWAFQEPTDNSRCMTGFIKKFRMWSTAKSANEVKTLMNSDVTGTESGLVCAWDFTTVVEDVTNIPDKTGKHVAKIVGNYKWFKVEN”: the “soluble on expression in E. coli” value is listed as “not soluble”.

For the origin of these results see the DeepSol protein solubility set.
